Data on one substance can be found in article doi:10.1101/2022.06.04.494841.

Where “and” joins values, the source holds several entries; their conditions need not be identical. Identical values can stand only once.

The target in this assay is MoFe-protein (molybdenum iron protein of the MoFe-nitrogenase) from Azotobacter vinelandii (Azotobacter vinelandii) (UniProt P07328). Put plainly: cryo-EM structure.
UniProt P07328, sequence (P07328 whole entry, chain 1 of 2): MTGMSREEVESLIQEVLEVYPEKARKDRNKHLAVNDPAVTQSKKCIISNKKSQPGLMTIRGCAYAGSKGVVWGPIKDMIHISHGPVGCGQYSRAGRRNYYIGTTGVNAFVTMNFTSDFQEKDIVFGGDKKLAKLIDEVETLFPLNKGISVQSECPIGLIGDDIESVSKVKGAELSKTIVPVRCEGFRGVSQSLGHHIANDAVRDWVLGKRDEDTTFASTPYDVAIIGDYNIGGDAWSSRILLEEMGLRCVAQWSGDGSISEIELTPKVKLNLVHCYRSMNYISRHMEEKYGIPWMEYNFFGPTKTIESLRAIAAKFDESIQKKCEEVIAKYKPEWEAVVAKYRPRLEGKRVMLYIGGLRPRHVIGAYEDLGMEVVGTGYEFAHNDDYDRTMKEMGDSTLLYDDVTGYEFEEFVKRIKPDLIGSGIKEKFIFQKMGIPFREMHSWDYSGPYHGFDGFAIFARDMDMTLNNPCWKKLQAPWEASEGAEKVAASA
UniProt P07328, sequence (P07329 whole entry, chain 2 of 2, further chain): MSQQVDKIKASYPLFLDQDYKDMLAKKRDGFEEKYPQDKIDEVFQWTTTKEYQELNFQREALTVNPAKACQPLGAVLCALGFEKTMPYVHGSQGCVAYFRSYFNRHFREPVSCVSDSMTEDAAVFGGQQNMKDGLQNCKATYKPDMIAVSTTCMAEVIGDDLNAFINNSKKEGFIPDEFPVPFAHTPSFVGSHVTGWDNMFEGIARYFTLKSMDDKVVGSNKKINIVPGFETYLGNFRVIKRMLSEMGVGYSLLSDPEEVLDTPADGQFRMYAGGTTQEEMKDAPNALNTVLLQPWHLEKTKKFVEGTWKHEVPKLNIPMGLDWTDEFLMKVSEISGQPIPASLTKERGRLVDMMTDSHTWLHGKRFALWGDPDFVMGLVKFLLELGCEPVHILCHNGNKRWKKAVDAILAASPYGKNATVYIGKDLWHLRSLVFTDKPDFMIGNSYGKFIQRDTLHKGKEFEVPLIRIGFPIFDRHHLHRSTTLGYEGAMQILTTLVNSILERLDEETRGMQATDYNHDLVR

Take “Fe-protein (iron protein of the MoFe-nitrogenase) from Azotobacter vinelandii (enzyme)”: the stoichiometry N (Fe-protein per MoFe-protein) was 2 and 1.
